This experiment addresses MalK, ATPase subunit of the maltose transporter (E. coli, UniProt P68187 1-371). The experiment can be described thus: crystal structure.

MalK, ATPase subunit of the maltose transporter, sequence (P68187 whole entry): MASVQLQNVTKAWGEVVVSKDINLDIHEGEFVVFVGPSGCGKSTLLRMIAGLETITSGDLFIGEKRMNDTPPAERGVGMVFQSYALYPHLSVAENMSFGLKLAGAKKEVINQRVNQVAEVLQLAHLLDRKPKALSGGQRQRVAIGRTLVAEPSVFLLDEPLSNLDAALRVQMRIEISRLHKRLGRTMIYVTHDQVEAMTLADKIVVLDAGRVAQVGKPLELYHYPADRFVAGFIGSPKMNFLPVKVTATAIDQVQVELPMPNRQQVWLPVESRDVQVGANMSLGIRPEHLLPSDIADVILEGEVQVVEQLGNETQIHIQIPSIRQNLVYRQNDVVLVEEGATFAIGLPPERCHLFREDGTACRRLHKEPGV

B1: glucose-specific enzyme IIA (EIIA^Glc), full-length (natural protein, E. coli, UniProt P69783 1-169, looked up)
chain: MGLFDKLKSLVSDDKKDTGTIEIIAPLSGEIVNIEDVPDVVFAEKIVGDGIAIKPTGNKMVAPVDGTIGKIFETNHAFSIESDSGVELFVHFGIDTVELKGEGFKRIAEEGQRVKVGDTVIEFDLPLLEEKAKSTLTPVVISNMDEIKELIKLSGSVTVGETPVIRIKK
For B1, the binding result was “binds”.

Source of the values: paper PMC3875231 (Nature, 2013).
